Data on 74 sequences can be found in the supplement of paper PMC12636428.

The test system of the series is Saccharomyces cerevisiae. The experiment in a line: transcriptional activation domain activity (GFP:mCherry ratio, weighted mean of sorted bins, harmonized to initial dataset scale) (arbitrary fluorescence ratio units); higher = stronger transcriptional activation. The following applies: beta-estradiol 1 µM; induction time 4 h. Put shortly: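 Values are activation activity, found as the read-weighted mean of bin median fluorescence, averaged across barcodes and then mapped linearly onto the initial dataset scale. Barcoded protein tiles fused to an estradiol-inducible synthetic transcription factor were integrated at the URA3 locus of GFP-reporter yeast diploids. Cells were induced for 4 hours at 30 °C with 1 uM beta-estradiol in SC, sorted into 8 bins by GFP:mCherry ratio, and barcode-sequenced, with tiles under 50 reads discarded.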
For the sequence “ISAQEFSRNFTEDVDESLQSEIDLMNYDNEALNQLMAIDLDKLLGIFPNLSNF”, the “transcriptional activation domain activity” value is 140000.
For “LSFRFLDYTSLTHCVDYRNPALAFNILVTCLLFLILRPKPLVLYWCLVCIGFW”, the “transcriptional activation domain activity” value is 44700.
The same measure for “KRNKPNACGGCGAESDENGGALMMCSRCKDRKYCGAECQKTHWKVHKKVCEVA”: 58500.
The figure for “AAAGAADEAKTSSSPNGTKEAAVASSGGEKPAAAGVAGAPNSQSQTGAQPTKK” is 28700; for “KQGQEVEFKPERGVGDLVLKVTGRKRGYRAEERRSNSLRAQLVISHAVPLAVT” it is 60200; for “FDRLIPEWAHAWKPVEGIWMLWWIKHQIFFALGVLQLLNQYWFFLILRILVRT” it is 56300.
The same measure for “GGGGGGGGSYGAFGGGGKTCYTCGGVGHLSRDCVQGSKCYNCSGIVRDVILVE”: 67800; for “MCGGSFSLHRLHFFFIYVCFFCFVLSCLFTLAYWVVLYYARLVMGFWWFWWFG”: 58300.
Regarding “FCQISGFSLAVGIESSDIAVLLIALHSVMYIFSPLSGLYPYRQLAYLVYYLFP”, the “transcriptional activation domain activity” value was determined as 49400.
On to “NCLKLGCDCLGMIHYFDGFICSHKGLPIKLENVICMHEQDNGLMWKHTHFRTN”, for which the “transcriptional activation domain activity” value came to 40800.
The same measure for “TAVLMQLINLTVFICLASFGSLVFATWLPLIFQYYAIHLRDLLLHDASLIVNW”: 39100.
The figure for “TYSDVDGEILWPPPVMNVMMIERCGAVCCRVSVGWVLLRRWAQVKRKWETIVL” is 41700; for “RIRDFMQFTLAATKTHYKLLPDILFKADPELCRRVSDANPSCALAALLTLYAH” it is 77500; for “MESVTCFYFHLFRFFHSRLLVFVLMLCFESIVSLFRFLCIFVFSLFFYIFFFF” it is 75500.
The same measure for “GMVPGYYPKMPYNPMGGDPLLDQAFYGADDFFFPPEGCDNNMLYPQTATSWNV”: 138000; for “GLWLVLLCDAARFPDVVDLVKRKGSRFPASGDLASNESWYLSLWAIKAHILQR”: 64800; for “VMFHGKQMKNFLIDINSFTNQQQQAQDNPSFLPLDIEQSSYDLSEDAMSYPII”: 115000.
With “NAFGAYSTDPSNIAEGLNTVGFRSGFAFFFVSMGIMCLIYLVCSLRTNVCFFM”, the “transcriptional activation domain activity” value stood at 26100.
The same measure for “MAKTRLIETIHTAFCIEFIYQYLIIGYGNPLVLAQIHWSVVCLLACTLLIVFL”: 55500; for “GGGTDPRHLHVVSVMLVKGVPFYGYHIGYSYFLKVSLVNPSRMFVALEQLRKP”: 30000.
The same measure for “MLLTVYMFIIVFSFFICYHYINLVLQILIAGLLYGLSYVRFSMNWIIYFYNQC”: 78400; for “SAGTAQAGKKPRILLKVNGRSYQRVDCVGRGGSGKVYKVTAENGKMFAMKRVS”: 45100.
As for “LALCQLKFWAIFSSIKHVNGLLKHSYPFDRSNFNVLVKSLIRGMFYKFQERQD”, the “transcriptional activation domain activity” value amounted to 40100.
The figure for “VLYPLWPLKMRQGVYYLSWGFLCLLGLFFLMAIFRVILFCITYFVVSPGLWLF” is 34400; for “SASKPAAVTDADEAARPVKKPARPSPGDEDKPEKKEESSRKIETQQPKKAAAQ” it is 25500; for “RSSVGAYIKPKQQVVAVPCVGPHDSGINVLYLCAPSVEEVVMLTRFVILHLGG” it is 55500.
The figure for “KPDLYLDILKIIAYSLDDVKFRACQVLFHYYFVSLGHVVVAEALPKLGVTVEI” is 36400; for “IETLYRLVTTHSGQDYFIQSVHHGILLLNLLYMDIPYFTEWVGLSCQLYNVIT” it is 27700.
The figure for “QQQQQQQQQQQQQQQQQSLDTLLHHYQSLLSKSDNAIAFDDNVSNSADHNGSN” is 22600.
As for “DLFVSLMANSLTKLGFVPGATVDMKKLTIDIVELIFRWERRRMTGSPSIKPAD”, the “transcriptional activation domain activity” value was determined as 45200.
Turning to “RLYAVRLVIVILVMELTLHFLYVVAISKSKAWDGASPLELSMVGYFNLVIIWM”, the “transcriptional activation domain activity” value turned out to be 42900.
As for “VLICAHGQQQMGSGVFLGQDLLSRARMESIFCRSTVPVIVITTAYCSGLWAVP”, the “transcriptional activation domain activity” value worked out at 55900.
The figure for “IQFSLIPLSILSFCINHFGLGCDVWTVSFAHITDVLHITYWVEILYTLCLYFV” is 40700; for “FGSWGRGLCPLVFREAGWLELWGCVCVGGTLVWCLPYGILPMSYWRIWGLLRW” it is 74600; for “DAAAAAAAKKKKQQQQQQQEKEEEAKKEKASSASSASRASSISAHKASVSAAK” it is 19700.
The same measure for “MSLFLHSIIGGWLLHLFSLLCFLLFCFSAFCFSTTLFVTRRSGFVVGLWSLCL”: 52000.
The same measure for “MSNLELMRFLTKPDVKLELSVKIDDIYWNCIFSLRYREMYTASLLRYMVFFLR”: 52700; for “IVSPFSTSVRSVSSCVELIRQGRGALATSITGYKYLILYGQVMMMLKIFTFYF”: 55600; for “DRHLDHGQLVYLLHSIVTCPRFQPMVRAIIVSRELPFFVQTWPWPYLSLLART”: 36100.
Consider “LIVTALVWLFQASTEQFTFVALLMYRLKYPVRRVAWLLKFSAIQNLIPKFGFA”, for which the “transcriptional activation domain activity” value worked out at 61200.
The same measure for “AQSTSVVLVFGSDEKKVKEIGEGLKSKLGIKGGGKGTRWSGKFTGVWKDAREG”: 46700; for “FTQFEDTWNLDVTPNFLPDLNDFDMERLDFSLADDFAQSIASFPYSPPETLLI”: 149000; for “SFLEGAQHVVLGPGNFQWRGTKCKSFDAFIFNFIRVPRLEYWKLIRRSNCYRY”: 52500.
The figure for “LLLCGEICVACIVLYIHIVFFFGFFFFFLLGMIGLCLTFSNQLILFVYFLYFL” is 43200.
The same measure for “NTWLLFRQVVDVILLNDFVAYCMFAFSCFRVPEGLSLAVHIMRWVAGIALIAF”: 56200.
On to “EAVKKSAERRDSATKSTSPAPAKEEKKEEGKKPEKKEAKPDDKKGEEAGEDKG”, for which the “transcriptional activation domain activity” value came to 10800.
Consider “LPNVCLILPVYLRALVLNTLQVDKDQRTLLYESIRGHIVTLRGCKTGSKVIWL”, for which the “transcriptional activation domain activity” value was 60800.
The figure for “SNEGFDYDVELKKKNIGLILAFKEHECDSDQLVAYLVYQRMKRIVWLHKLCVV” is 64600.
The figure for “LHLCLQVTKAYLERFHKFDPADITVCCSSVMFHFACAMKVLYRLLLLDDPGWD” is 59900; for “GNDEAGAEDTDEDEIEGEGEEGQAPADGNEEEGAGEGESSRAMKKIGKKKAEK” it is 16600.
The figure for “SVASMNSNYLLPVNSHGYKHISNLDELDDLLSLTYSDNNLLSASNNSDFNNSN” is 88400.
As for “MDPSTRRRVTNIGPLDKRRTLRRCEQCRISRTKCEGGRPCHACRARLVGCRDQ”, the “transcriptional activation domain activity” value worked out at 41700.
In the case of “TDSNATQKQLPVLTPSDLLSPFSVPSVSQVLFTNELRSMMLADNNIDSGAFPT”, the “transcriptional activation domain activity” value was 79900.
With “MLQRFWYLALLAKRRTDLFSFKLSCLELLCFLPISMVVCHIWVIMGPLFFILF”, the “transcriptional activation domain activity” value was found to be 50800.
The figure for “TMHLNVVFISVVVNGFCSEHGFVSMRLWAVYKSLSLVLWMSFFIVLCWVGMIV” is 53600; for “LGGNSGRATPGGGESRASTRKSKSKGAAKSRSRSPSRGRNRAGSKKKAGAAAT” it is 38700; for “LILARRKGDDRFRRIFMFTMCRLLVTRNHNPDLRRLVTEYLLNVDRFMILLLG” it is 59000.
Take “IGMGLDAMLILSRLSRFIRIACVVFWWPGFAVFIAACKSLCLLLHFRDVRELR”: the “transcriptional activation domain activity” value was found to be 63000.
The same measure for “MSQFDFGLLFGQPFFLCSLVLFGLGWFITFIATCTIGSSPHLIWVEIFYNLFL”: 58500.
The same measure for “VQVDDRSIMVSELAVKLGRNFRAQLAILVLFRVVTSKEHIIRKGWKDIIRIWL”: 62200.
The same measure for “LLICSVVALVTCLAFLTNLTSMVPNFVLACLPLTAFLIFGTHSDLLRVWCFWW”: 28700; for “SGSAAGPSSNAAEKETKEKSGQRRRGRRGGGGGGGGGGGDKNAATGTSQGASG”: 35200.
With “EHIEVDLTGIEEVTTGAGLLSRTRTSRHCFLHKTKVLQILDMKCTHDHPSPSS”, the “transcriptional activation domain activity” value stood at 29800.
The figure for “IIHLVNLAQVTVFLVHRILYGIIPLFEIQTCAYFPLLVSLWHMTYILFYVVMF” is 36100.
The figure for “SKIAWMILNIKYITQILTTIMRMHGQIEKNPLRPEVVPQFVGICRWIMQFMIY” is 55700.
Regarding “MPQESKGKASAAAQRAHEKESKRARGALSCAECRRLKLKCDKSVPCSSCVRRG”, the “transcriptional activation domain activity” value was determined as 44700.
The same measure for “RYLNITGRCRCSLQDLSFSVLLIRSLGAPLVELHVCCLYWWFGAYRLRFIFFI”: 55000; for “TQLIELNVPMGKVGMVVDNSSDKLEIEDIVVYWSLRSRPVWLVYVRAFLKSII”: 56200; for “LLVANLTILDTFGLEESAIRIWNVCKPLGHLGQNALLILMLRLKDTMLIPWPL”: 72200.
The figure for “YVGKYPESIDTFSIVPRTPTSRLIRSYLKTILANPESRKIFYFLMLNLAYMLV” is 58300.
The figure for “GKPRKRLAQACLTCREKKIKCDPGSPKCAQCQKSHRICRGTGSVASSGGPVGV” is 19000; for “LVRQEDLINIAFHFVAKIPCTWPLPLRKAIADLHHYGGLHVGCTVSALFWYIL” it is 45300.
With “MLCLCTIWIYNAQICYYLSSCSTLLVTDCCCCYYYSLLFYILTSSFFQILLST”, the “transcriptional activation domain activity” value turned out to be 50100.
The figure for “MSAAEDNKPVEAVEKVEEAPQAEEVPKVEEAPAQEEAGATASEKKDANILKTT” is 25700.
